Data on seven molecules can be found in US20120277286A1, “COMPOSITIONS AND METHODS FOR THE TREATMENT OR PREVENTION OF MITOCHONDRIAL DISEASES” (The Government of the USA, as represented by the Secretary, …, priority 2009, published 2012).

One experiment concerns HeLa cells. The experiment can be described thus: Parkin-induced mitophagy, loss of mitochondria by immunocytochemistry. The class given is cell-based. The following applies: YFP-Parkin HeLa cells, 10 μM CCCP+10 mM 3-methyladenine or +100 nM Bafilomycin, 24 hours. Here is the method:
Cultured cells seeded in borosilicate chamber slides (Thermo Fisher Scientific) were transfected or cotransfected with YFP-Parkin, ECFP-Parkin, mCherry-Parkin, DsRed-Mito (Clontech Laboratories, Inc.), pcDNA3.1 (Invitrogen), vMIA, and/or Drp1K38A constructs using Fugene 6 (Roche). Parkin-myc was a gift from M. Cookson (National Institutes of Health, Bethesda, Md.). Cells were fixed 12-24 hours after transfection with 4% paraformaldehyde in PBS. Cells were stained with following primary antibodies: mouse monoclonal cytochrome c (BD), rabbit polyclonal Tom20 (Santa Cruz Biotechnology, Inc.), mouse monoclonal Parkin PRK8 (Santa Cruz Biotechnology, Inc.), rabbit polyclonal PMP70 (Invitrogen), and/or mouse monoclonal TRAP1 (Abcam); and with the following secondary antibodies: mouse and/or rabbit Alexa 488, 594, and 633 (Invitrogen). For assessment of mitochondrial membrane potential, cells were pulsed with 50 nM Mito-Tracker red (Invitrogen) for 15 min, washed, and incubated for an additional 10 minutes before fixation or imaging. For assessment of cell metabolic potential, cell nuclei were stained with Hoechst 33342 (Invitrogen).
(§1) Confocal microscopy of fixed samples, scoring of Parkin recruitment and Parkininduced mitophagy, and live cell imaging were performed as described previously (Narendra (2008) J Cell Biol 183: 795-803). Experiments in Mfn1/2 null cells were performed as described previously with minor modifications.
(§2) Confocal microscopy of fixed samples, scoring of Parkin recruitment and Parkin-induced mitophagy, and live cell imageing were performed as described previously (Narendra (2008) J Cell Biol 183: 795-803). Experiments in Mfn1/2 null cells were performed as described previously with minor modifications described in the supplemental methods (Narendra (2008) J Cell Biol 183: 795-803).

A further experiment concerns PINK1. The experiment can be described thus: PINK1 accumulation by fractionation and immunoblotting. The class given is cell-based. The following applies: HeLa cells, mitochondrial membrane fraction; 10 μM CCCP or 1 μM valinomycin.
Source text: (§3) For PINK1 experiments, cells were fractionated using the Mitochondria Isolation Kit (Pierce), according to manufacturer's specifications with slight modifications. To isolate integral membrane proteins, membrane fractions obtained as above were carbonate extracted with 0.1M Na2CO3 fresh cold buffer and membranes were pelleted, as described in the supplemental methods. For Parkin experiments, cells were fractionated as described previously, with minor modifications described in the supplemental methods (Narendra (2008) J Cell Biol 183: 795-803). The following primary antibodies were used: anti-Parkin (PRK8) monoclonal (Santa Cruz), anti-Tom20 polyclonal (Santa Cruz), anti-cytochrome c monoclonal (BD Biosciences), anti-PINK1 polyclonal (Novus Biologicals), anti-VDAC monoclonal (Calbiochem), anti-GAPDH polyclonal (Sigma-Aldrich), anti-Tubulin monoclonal (Sigma-Aldrich), anti-V5 monoclonal (Invitrogen), anti-GFP polyclonal (Invitrogen).
as §3, with “with slight modifications described in the supplemental methods. To isolate” for “with slight modifications. To isolate”, “minor modifications detailed in the” for “minor modifications described in the”, “supplemental methods (Narendra (2008) J Cell Biol 183: 795-803). The protease protection assay was performed as described previously (Chen (2005) J Biol Chem 280: 26185-26192). Cells were fixed and immunostained as described previously (Narendra (2008)” for “supplemental methods (Narendra (2008)”, “anti-GFP polyclonal (Invitrogen), anti-TIM23 monoclonal (BD Biosciences), and anti-Hsp60 monoclonal (Stressgen).” for “anti-GFP polyclonal (Invitrogen).”
(In general: A western blot detects proteins with antibodies after separation by electrophoresis.)

The test system of experiment [1] is PINK1+/+ or PINK1−/− MEFs. The experiment in a line: YFP-Parkin recruitment to mitochondria in MEFs. The following applies: 20 μM CCCP, 3 hours; for reconstitution of YFP-Parkin recruitment: PINK1−/− primary MEFs co-transfected with construct. The class given is cell-based, mouse.
Source text: HeLa YFP-Parkin, PINK1+/+ SV40 transformed MEFs cells, PINK1−/− SV40 transformed MEF, M17 neuroblastoma control shRNA, M17 neuroblastoma PINK1, and Mfn1/2−/− MEF cell lines have been described previously (Narendra (2008) J Cell Biol 183: 795-803). PINK1+/+ and PINK1−/− primary MEFs were isolated from embryos using a standard protocol (Gautier (2008) Proc Natl Acad Sci USA 105: 11364-11369). Parkin+/+ and Parkin−/− transformed MEFs were created by isolation of primary cells from embryos of B6.129S4-Park2tm1Shn/J mice (Jackson Labs), using a standard protocol (Gautier (2008) Proc Natl Acad Sci USA 105: 11364-11369), followed by retroviral transduction of SV40 (Applied Biological Materials, Inc.). YFP-Parkin, YFPParkin mutants, mCherry-Parkin, PINK1-YFP, PINK1 KD-YFP, PINK1 Δ1-110-YFP, and Opa3-PINK1 Δ1-110-YFP are in C1 or N1 Clontech vectors. PINK1WT-V5, PINK1 KD-V5, and PINK1 Δ1-156-V5 are in pDest40 vector (Invitrogen). PINK1 patient mutations are in pLenti-V5 vector (Invitrogen). PINK1-myc is in a pCMBTNT vector (Promega).
as §1
HeLa YFP-Parkin, E18 Rat cortical neurons, PINK1^+/+ SV40 transformed MEFs cells, PINK1^−/− SV40 transformed MEF, M17 neuroblastoma control shRNA, M17 neuroblastoma PINK1, Mfn1/2^−/− MEF, and Parl^−/− MEF cell lines have been described previously (Narendra (2008) J Cell Biol 183: 795-803). PINK1^+/+ and PINK1^−/− primary MEFs were isolated from embryos using a standard protocol (Gautier (2008) Proc Natl Acad Sci USA 105: 11364-11369). Parkin^+/+ and Parkin^−/− transformed MEFs were created by isolation of primary cells from embryos of B6.129S4-Park2^tm1Shn/J mice (Jackson Labs), using a standard protocol (Gautier (2008) Proc Natl Acad Sci USA 105: 11364-11369), followed by retroviral transduction of SV40 (Applied Biological Materials, Inc.). YFP-Parkin, YFP-Parkin mutants, mCherry-Parkin, PINK1-YFP, PINK1 KD-YFP, PINK1 Δ1-110-YFP, and Opa3-PINK1 Δ1-110-YFP are in C1 or N1 Clontech vectors. PINK1WT-V5, PINK1 KD-V5, and PINK1 Δ1-156-V5 are in pDest40 vector (Invitrogen). PINK1 patient mutations are in the pLenti-V5 vector (Invitrogen). PINK1-myc is in a pCMBTNT vector (Promega). The PARL shRNA construct targeting (5′ […] 3′) is in the pSuper-GFP vector. To make FRB-PINK1 (111-581)-YFP and Tom20 (1-33)-FKBP, PCR fragments containing PINK1 (111-581)-YFP and Tom20 (1-33) were cloned into the BamHI site of the pC4-RHE vector and the EcoRI and XbaI sites of pC4M-F2E vectors, respectively (ARIAD Pharmaceuticals). The rapamycin analogue AP21967 was obtained from ARIAD Pharmaceuticals. The PARL shRNA construct targeting (5′ […] 3′) is in the pSuper-GFP vector (OligoEngine).
as §2

Turning to `Cn1cnc(N)c2ncnc1-2` [3-methyl adenine, reference compound], the “effect on Parkin-induced mitophagy” value with HeLa cells was “blocked”.
Same read-out and setting: in the case of `CO/C1=C\C(C)=C\[C@@H](C)[C@@H](O)[C@@H](C)C/C(C)=C/C=C/[C@H](OC)[C@@H]([C@@H](C)[C@@H](O)[C@H](C)[C@@]2(O)C[C@@H](O)[C@H](C)[C@@H](C(C)C)O2)OC1=O` [bafilomycin, reference compound] it was “blocked”.
Turning to `CC(C)[C@@H]1NC(=O)[C@H](C)OC(=O)[C@@H](C(C)C)NC(=O)[C@@H](C(C)C)OC(=O)[C@H](C(C)C)NC(=O)[C@H](C)OC(=O)[C@@H](C(C)C)NC(=O)[C@@H](C(C)C)OC(=O)[C@H](C(C)C)NC(=O)[C@H](C)OC(=O)[C@@H](C(C)C)NC(=O)[C@@H](C(C)C)OC1=O` [valinomycin], the “endogenous full length PINK1 (˜63 kDa) level after depolarization” value in the experiment with PINK1 is given as “increased”.

B1: L347P: patient mutant of PINK1, V5-tagged (protein, UniProt Q9BXM7 78-581, looked up, variant L347P)
Serine/threonine-protein …: AARLQRQFVVRAWGCAGPCGRAVFLAFGLGLGLIEEKQAESRRAVSACQEIQAIFTQKSKPGPDPLDTRRLQGFRLEEYLIGQSIGKGCSAAVYEATMPTLPQNLEVTKSTGLLPGRGPGTSAPGEGQERAPGAPAFPLAIKMMWNISAGSSSEAILNTMSQELVPASRVALAGEYGAVTYRKSKRGPKQLAPHPNIIRVLRAFTSSVPLLPGALVDYPDVLPSRLHPEGLGHGRTLFLVMKNYPCTLRQYLCVNTPSPRLAAMMLLQLPEGVDHLVQQGIAHRDLKSDNILVELDPDGCPWLVIADFGCCLADESIGLQLPFSSWYVDRGGNGCLMAPEVSTARPGPRAVIDYSKADAWAVGAIAYEIFGLVNPFYGQGKAHLESRSYQEAQLPALPESVPPDVRQLVRALLQREASKRPSARVAANVLHLSLWGEHILALKNLKLDKMVGWLLQQSAATLLANRLTEKCCVETKMKMLFLANLECETLCQAALLLCSWRAAL
modifications: V5 tag
notes: patient mutant of PINK1, V5-tagged
Consider B1, for which, in experiment [1], the “reconstitution of YFP-Parkin recruitment” value was “failed to reconstitute”.

B2: G411S: PINK1 polymorphism, V5-tagged (protein, UniProt Q9BXM7 78-581, looked up, variant G411S)
Serine/threonine-protein …: AARLQRQFVVRAWGCAGPCGRAVFLAFGLGLGLIEEKQAESRRAVSACQEIQAIFTQKSKPGPDPLDTRRLQGFRLEEYLIGQSIGKGCSAAVYEATMPTLPQNLEVTKSTGLLPGRGPGTSAPGEGQERAPGAPAFPLAIKMMWNISAGSSSEAILNTMSQELVPASRVALAGEYGAVTYRKSKRGPKQLAPHPNIIRVLRAFTSSVPLLPGALVDYPDVLPSRLHPEGLGHGRTLFLVMKNYPCTLRQYLCVNTPSPRLAAMMLLQLLEGVDHLVQQGIAHRDLKSDNILVELDPDGCPWLVIADFGCCLADESIGLQLPFSSWYVDRGGNSCLMAPEVSTARPGPRAVIDYSKADAWAVGAIAYEIFGLVNPFYGQGKAHLESRSYQEAQLPALPESVPPDVRQLVRALLQREASKRPSARVAANVLHLSLWGEHILALKNLKLDKMVGWLLQQSAATLLANRLTEKCCVETKMKMLFLANLECETLCQAALLLCSWRAAL
modifications: V5 tag
notes: PINK1 polymorphism, V5-tagged
With B2, in experiment [1] (PINK1−/− primary MEFs expressing the PINK1 construct), the “YFP-Parkin recruited to mitochondria, % of cells” value was 74.2±5.4%.

B3: H271Q: patient mutant of PINK1, V5-tagged (protein, UniProt Q9BXM7 78-581, looked up, variant H271Q)
Serine/threonine-protein …: AARLQRQFVVRAWGCAGPCGRAVFLAFGLGLGLIEEKQAESRRAVSACQEIQAIFTQKSKPGPDPLDTRRLQGFRLEEYLIGQSIGKGCSAAVYEATMPTLPQNLEVTKSTGLLPGRGPGTSAPGEGQERAPGAPAFPLAIKMMWNISAGSSSEAILNTMSQELVPASRVALAGEYGAVTYRKSKRGPKQLAPQPNIIRVLRAFTSSVPLLPGALVDYPDVLPSRLHPEGLGHGRTLFLVMKNYPCTLRQYLCVNTPSPRLAAMMLLQLLEGVDHLVQQGIAHRDLKSDNILVELDPDGCPWLVIADFGCCLADESIGLQLPFSSWYVDRGGNGCLMAPEVSTARPGPRAVIDYSKADAWAVGAIAYEIFGLVNPFYGQGKAHLESRSYQEAQLPALPESVPPDVRQLVRALLQREASKRPSARVAANVLHLSLWGEHILALKNLKLDKMVGWLLQQSAATLLANRLTEKCCVETKMKMLFLANLECETLCQAALLLCSWRAAL
modifications: V5 tag
notes: as for B1
Regarding B3, in experiment [1], the “reconstitution of YFP-Parkin recruitment” value is “failed to reconstitute”.

B4: A168P: patient mutant of PINK1, V5-tagged (protein, UniProt Q9BXM7 78-581, looked up, variant A168P)
Serine/threonine-protein …: AARLQRQFVVRAWGCAGPCGRAVFLAFGLGLGLIEEKQAESRRAVSACQEIQAIFTQKSKPGPDPLDTRRLQGFRLEEYLIGQSIGKGCSPAVYEATMPTLPQNLEVTKSTGLLPGRGPGTSAPGEGQERAPGAPAFPLAIKMMWNISAGSSSEAILNTMSQELVPASRVALAGEYGAVTYRKSKRGPKQLAPHPNIIRVLRAFTSSVPLLPGALVDYPDVLPSRLHPEGLGHGRTLFLVMKNYPCTLRQYLCVNTPSPRLAAMMLLQLLEGVDHLVQQGIAHRDLKSDNILVELDPDGCPWLVIADFGCCLADESIGLQLPFSSWYVDRGGNGCLMAPEVSTARPGPRAVIDYSKADAWAVGAIAYEIFGLVNPFYGQGKAHLESRSYQEAQLPALPESVPPDVRQLVRALLQREASKRPSARVAANVLHLSLWGEHILALKNLKLDKMVGWLLQQSAATLLANRLTEKCCVETKMKMLFLANLECETLCQAALLLCSWRAAL
modifications: V5 tag
notes: as for B1
On to B4, for which the “reconstitution of YFP-Parkin recruitment” value in experiment [1] is given as “failed to reconstitute”.
